Measured values from publication doi:10.1101/2025.02.27.640495.

Molecular target: Cro-6His (Cro-like repressor of phage phi10403S) (Listeria monocytogenes 10403S prophage …, UniProt A0A0H3GJS2 1-67)
Assay: EMSA

B1: Cro operator probe, native (dsDNA)
DNA 1: TTATAGAGAAACAAAACGTTTCTTTTGG
DNA 2: CCAAAAGAAACGTTTTGTTTCTCTATAA
Kd: 321 nM
